According to patent US20120258119A1 (LUDWIG INSTITUTE FOR CANCER RESEARCH, published 2012):
Substitutions are numbered along the chain they refer to.

B1: ESC11 IgG1 (antibody, V domains shown)
VH: QVQLQESGPGLVKPSETLSLTCTVSGGSISSNNYYWGWIRQTPGKGLEWIGSIYYSGSTNYNPSLKSRVTISVDTSKNQFSLKLSSVTAADTAVYYCARGARWQARPATRIDGVAFDIWGQGTMVTVSS
VL: ETTLTQSPGTLSLSPGERATLSCRASQTVTRNYLAWYQQKPGQAPRLLMYGASNRAAGVPDRFSGSGSGTDFTLTISRLEPEDFAVYYCQQFGSPYTFGQGTKVEIK
notes: Variable domains cloned into a full human IgG1 format (modified pEE12.4 vector) and produced in NS0 cells; also called ESC11 DyLight 488
B2: ESC11 Fab fragment (Fab, V domains shown)
VH: B1 VH with Q1H
VL: B1 VL
notes: Fully human Fab from a non-immunized phage library, made in E. coli TG-1, His-tag purified and detected by its myc tag; also called Fab ESC11
B3: ESC14 Fab fragment (Fab, V domains shown)
VH: EVQLVQSGAEVKKPGASVKVSCKASGYTFTSYGISWVRQAPGQGLEWMGWISAYNGNTNYAQKLQGRVTMTTDTSTSTAYMELRSLRSDDTAVYYCARDWSRSGYYLPDYWGQGTLVTVSS
VL: DVVMTQSPLSLPVTLGQPASISCRSSQSLLHSNGYNYLDWYLQRPGQSPHLLIFLGSNRASGVPDRFSGSGSGTDFTLKISRVEAEDVGIYYCMQALQTPPTFGQGTKVEIK
notes: Fully human Fab from a non-immunized phage library, made in E. coli TG-1, His-tag purified and detected by its myc tag; also called Fab ESC14
B4: ESC14 IgG1 (antibody, V domains shown)
VH: B3 VH
VL: B3 VL
notes: Variable domains cloned into a full human IgG1 format and produced in NS0 cells

How the values were obtained:
[1] = molecular target: T1, human Fibroblast Activation Protein (FAP) expressed on cells (human, UniProt Q12884 1-760); assay: flow cytometry, serial dilutions on human FAP expressing cells (apparent KD)
T1 construct: whole, on cells; also called huFAP; human FAP
T1 sequence (looked up): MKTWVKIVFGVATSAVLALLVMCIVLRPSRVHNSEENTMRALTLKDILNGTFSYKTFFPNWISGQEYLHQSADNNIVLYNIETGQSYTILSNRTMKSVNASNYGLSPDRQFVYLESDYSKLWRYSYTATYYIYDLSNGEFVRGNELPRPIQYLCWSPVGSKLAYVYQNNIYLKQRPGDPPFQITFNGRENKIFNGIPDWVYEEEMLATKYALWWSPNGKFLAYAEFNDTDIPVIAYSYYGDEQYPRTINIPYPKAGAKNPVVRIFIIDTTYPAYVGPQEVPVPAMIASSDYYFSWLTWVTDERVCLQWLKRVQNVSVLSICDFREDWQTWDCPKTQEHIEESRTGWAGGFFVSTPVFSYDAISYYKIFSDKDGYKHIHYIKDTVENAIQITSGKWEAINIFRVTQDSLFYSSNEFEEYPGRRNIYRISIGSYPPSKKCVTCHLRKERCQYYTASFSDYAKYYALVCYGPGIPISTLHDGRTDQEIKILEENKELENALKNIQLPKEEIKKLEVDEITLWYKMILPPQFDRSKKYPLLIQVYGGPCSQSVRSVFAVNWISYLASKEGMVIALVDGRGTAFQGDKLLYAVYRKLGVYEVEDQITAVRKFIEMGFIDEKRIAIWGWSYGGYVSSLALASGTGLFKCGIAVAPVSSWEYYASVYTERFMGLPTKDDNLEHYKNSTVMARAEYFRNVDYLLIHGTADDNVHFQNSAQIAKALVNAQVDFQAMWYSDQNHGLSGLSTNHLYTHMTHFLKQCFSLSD

[2] = molecular target: T2, human DPPIV/CD26 expressed on HEK293 cells (human, UniProt P27487 1-766); assay: ELISA, Fab at 100 nM on plates coated with cell lysate
T2 construct: whole, on cells; also called huCD26; dipeptidyl peptidase IV
T2 sequence (P27487 whole entry): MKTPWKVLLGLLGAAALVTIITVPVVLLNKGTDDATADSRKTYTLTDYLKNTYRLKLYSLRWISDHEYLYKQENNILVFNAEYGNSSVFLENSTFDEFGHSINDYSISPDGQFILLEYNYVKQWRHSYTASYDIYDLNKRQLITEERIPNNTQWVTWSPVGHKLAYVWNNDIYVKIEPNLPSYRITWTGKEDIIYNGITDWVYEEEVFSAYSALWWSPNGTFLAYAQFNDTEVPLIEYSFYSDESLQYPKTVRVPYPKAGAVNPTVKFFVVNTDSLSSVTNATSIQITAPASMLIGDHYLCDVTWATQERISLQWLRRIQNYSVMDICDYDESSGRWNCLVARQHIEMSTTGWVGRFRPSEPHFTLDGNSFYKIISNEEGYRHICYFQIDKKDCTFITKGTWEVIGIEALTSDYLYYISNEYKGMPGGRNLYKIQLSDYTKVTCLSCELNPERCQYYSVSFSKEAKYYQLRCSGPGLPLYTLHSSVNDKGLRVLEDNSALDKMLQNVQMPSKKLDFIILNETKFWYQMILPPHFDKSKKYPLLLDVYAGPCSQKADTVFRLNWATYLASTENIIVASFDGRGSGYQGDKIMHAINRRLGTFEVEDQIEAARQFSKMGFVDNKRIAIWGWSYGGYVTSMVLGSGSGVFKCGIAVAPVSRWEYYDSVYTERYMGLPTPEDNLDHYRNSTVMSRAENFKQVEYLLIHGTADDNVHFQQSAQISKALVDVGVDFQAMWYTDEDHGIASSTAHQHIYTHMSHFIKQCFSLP

[3] = molecular target: T3, recombinant human FAP (R&D systems) (human, UniProt Q12884 26-760); assay: SPR (BIAcore), Fab 0.5-16 nM injected over rhuFAP on a CM5 chip, heterogeneous ligand model [box under the left panel]
T3 construct: Bought protein amine-coupled at low density on a CM5 chip for SPR; also called rhuFAP; rFAP
T3 sequence (looked up): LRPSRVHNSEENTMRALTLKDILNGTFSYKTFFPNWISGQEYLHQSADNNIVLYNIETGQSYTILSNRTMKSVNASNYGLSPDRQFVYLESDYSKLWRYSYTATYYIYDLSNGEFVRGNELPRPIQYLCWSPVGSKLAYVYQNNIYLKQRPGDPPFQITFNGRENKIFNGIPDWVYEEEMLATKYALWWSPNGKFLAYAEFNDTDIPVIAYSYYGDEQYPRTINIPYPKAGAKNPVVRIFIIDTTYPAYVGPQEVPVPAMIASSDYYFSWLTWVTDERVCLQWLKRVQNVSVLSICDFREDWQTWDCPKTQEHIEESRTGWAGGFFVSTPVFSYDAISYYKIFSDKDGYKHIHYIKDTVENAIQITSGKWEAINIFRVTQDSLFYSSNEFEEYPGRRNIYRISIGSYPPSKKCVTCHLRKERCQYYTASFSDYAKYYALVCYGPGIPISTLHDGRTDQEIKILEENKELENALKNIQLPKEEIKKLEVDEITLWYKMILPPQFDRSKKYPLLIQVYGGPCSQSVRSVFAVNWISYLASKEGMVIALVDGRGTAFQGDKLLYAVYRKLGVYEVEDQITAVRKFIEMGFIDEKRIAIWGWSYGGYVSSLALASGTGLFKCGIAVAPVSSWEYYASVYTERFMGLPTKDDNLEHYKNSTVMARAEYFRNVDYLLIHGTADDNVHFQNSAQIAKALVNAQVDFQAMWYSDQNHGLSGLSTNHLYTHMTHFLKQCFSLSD
Description: (§1) Purified Fabs were injected at the concentrations indicated in the figure on a rhuFAP-coated CM5 sensor chip. Values were corrected for binding to the reference flow cell. The black solid lines represent the theoretical curves for each Fab concentration calculated according to the heterogeneous ligand model and the indicated rate and affinity constants.
(§2) Binding analysis of Fabs to recombinant FAP (R&D systems) was performed on a BIAcore T100 instrument. rFAP was immobilized at low density on a CM5 sensor chip using amine coupling chemistry. […] Analysis of the binding curves and determination of rate constants was done using the nonlinear data analysis program BIAevaluation.

[4] = molecular target: T3, recombinant human FAP (R&D systems); assay: SPR (BIAcore T100), Fab injected over rhuFAP on a low-density CM5 chip
Description: as §2

[5] = molecular target: T4, murine FAP expressed on HEK293 cells (mouse, UniProt P97321 1-761); assay: flow cytometry, serial dilutions on 293 muFAP+ cells (apparent KD)
T4 construct: whole, on cells; Also used as cell lysate in ELISA; also called muFAP; mouse FAP
T4 sequence (looked up): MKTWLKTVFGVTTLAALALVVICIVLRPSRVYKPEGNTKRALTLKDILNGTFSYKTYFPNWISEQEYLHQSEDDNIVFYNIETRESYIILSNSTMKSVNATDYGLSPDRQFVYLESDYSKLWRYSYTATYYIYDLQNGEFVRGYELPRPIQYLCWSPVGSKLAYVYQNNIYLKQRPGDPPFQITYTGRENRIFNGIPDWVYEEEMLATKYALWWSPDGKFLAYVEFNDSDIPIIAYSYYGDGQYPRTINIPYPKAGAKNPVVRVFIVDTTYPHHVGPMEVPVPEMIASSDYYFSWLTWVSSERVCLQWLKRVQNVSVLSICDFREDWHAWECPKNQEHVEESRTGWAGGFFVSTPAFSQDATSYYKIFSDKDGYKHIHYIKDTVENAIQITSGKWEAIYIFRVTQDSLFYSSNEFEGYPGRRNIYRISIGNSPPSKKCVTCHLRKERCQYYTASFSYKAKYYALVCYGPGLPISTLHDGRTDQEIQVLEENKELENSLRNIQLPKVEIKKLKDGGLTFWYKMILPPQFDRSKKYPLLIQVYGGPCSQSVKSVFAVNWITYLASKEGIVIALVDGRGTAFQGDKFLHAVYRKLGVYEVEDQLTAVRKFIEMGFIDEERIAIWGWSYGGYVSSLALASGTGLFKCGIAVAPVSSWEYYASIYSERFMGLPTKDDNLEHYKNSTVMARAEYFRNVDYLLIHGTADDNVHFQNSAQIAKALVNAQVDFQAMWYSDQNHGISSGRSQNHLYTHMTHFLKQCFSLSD
Description: The cells were then washed once with PBS, fixed for 20 min with 2% PFA on ice and bound antibody was detected with PE-conjugated anti-human IgG F(ab)′₂ (Jackson Immuno Research 109-116-097). Cells were analyzed on a FACScan (BD) cytometer and data was analysed with FlowJo. The apparent Kapp was calculated by fitting a dose-response curve using the following equitation f=Bmax*abs(x)/(Kd+abs(x))+Ns*x using SigmaPlot software (Systat Software Inc.).

[6] = molecular target: T3, recombinant human FAP (R&D systems); assay: SPR (BIAcore), Fab 6.25-200 nM injected over rhuFAP on a CM5 chip, heterogeneous ligand model [box under the right panel]
Description: as §1, §2

Row | Binder | Kd [1] | binding result [2] | koff [3] | kon [3] | Kd [4] | Kd [5] | koff [6] | kon [6]
1 | B1 | 1.1 nM |  |  |  |  |  |  | 
2 | B2 |  | no binding (tested: 100 nM) | 0.017 s⁻¹ | 1.6e+06 M⁻¹ s⁻¹ | 10 nM | 51 nM |  | 
3 | B3 |  | no binding (tested: 100 nM) |  |  | 210 nM | 251 nM | 0.125 s⁻¹ | 560000 M⁻¹ s⁻¹
4 | B4 | 1.1 nM |  |  |  |  |  |  | 
